The labels stand for the following.
B1: Azoarcus group I ribozyme (parent)
chain: GUGCCUUGCGCCGGGAAACCACGCAAGGGAUGGUGUCAAAUUCGGCGAAACCUAAGCGCCCGCCCGGGCGUAUGGCAACGCCGAGCCAAGCUUCGGCGCCUGCGCCGAUGAAGGUGUAGAGACUAGACGGCACCCACCUAAGGCAAACGCUAUGGUGAAGGCAUAGUCCAGGGAGUGGCGAAAGUCACACAAACCGG

The variants in the data set derive from B1. Nature of the data set: reverse-splicing fitness (ratio to wild type); higher = more active; in vitro selection; Mg2+ level not given. In a few lines: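 An in vitro group I ribozyme library with randomized positions was T7-transcribed and gel-purified. In triplicate, 10 pmol RNA in EPPS pH 7.5 was reacted with 50 pmoles of a 30-nt RNA substrate for 1 h at 37 °C across several added MgCl2 levels (1–48 mM), then stopped with EDTA. Products were reverse transcribed from a substrate-complementary primer, PCR-amplified and sequenced (HiSeq 4000). Fitness is a variant's read proportion after selection over that before, normalised to wild type.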
Turning to A111G A120G A145U C150A C169G U176G, the reverse-splicing fitness was 0.00424.

Regarding C82G A111U A120G A145G C169A U176G, the reverse-splicing fitness came out at 0.00491. Under C82G A120C A145U C150G U176G stands 0.00444; under C82G A111C A120U C150G C169G U176G, 0.00302; under C82A A120C A145U C150G U176G, 0.00376. Under C82U A120G A145C C150U C169G stands 0.00988. Under C82G A111G C150A U176A stands 0.0337; under C82U A111C C150U C169A U176C, 0.0134. Regarding A111C A145U C150U C169U, the reverse-splicing fitness stood at 0.0751.

Consider A111G A120G C150G C169A U176G, for which the reverse-splicing fitness came out at 0.00604. C82U A120U U176A: the reverse-splicing fitness worked out at 0.0428. Consider C82G A111U A120C C169A U176G, for which the reverse-splicing fitness came out at 0.00684.

On to A120C A145U C150A C169A U176C, for which the reverse-splicing fitness was 0.00632.

C82G A120G A145U C150A C169U U176A: the reverse-splicing fitness came to 0.02. Under C82U A111U A145G C150U C169G U176G stands 0.00598.

C82A A111U A145G C150G C169A: the reverse-splicing fitness is 0.0097. The same measure for A111G A145G C169G U176A: 0.0326; for C82G A111C A120U C150A C169U U176A: 0.00691. For the variant C82G A120C A145C C150U U176G, the reverse-splicing fitness is 0.00925. Under A145C U176C stands 0.843. Under C82U A120C C150A C169U stands 0.0109; under C82A A111C A120U A145C C150U C169U U176C, 0.00286; under A111G A120C A145G C150U U176C, 0.316.

On to C82A A111C A120G A145G C150G C169G U176C, for which the reverse-splicing fitness was 0.0118.

In the case of A111U A145U C150U C169G U176C, the reverse-splicing fitness stood at 0.0192. A111G A120C C150U C169G U176A: the reverse-splicing fitness is 0.0207. For the variant C82A A120C C169A, the reverse-splicing fitness was found to be 0.0104.

On to A111G A145U C150G C169G U176A, for which the reverse-splicing fitness came to 0.00712. Under C82G A111G A120U A145G C150G stands 0.0102; under C82G A120G A145C C150U C169A, 0.0116. Under A120U A145U C150A C169G U176A stands 0.00797. The same measure for C82G A111U A120G A145U C150U C169U: 0.00944; for C82A A120C A145C C150A C169A U176A: 0.0195; for C82U A111G A145G C169U U176C: 0.0129.

Regarding A111C A120C A145U C150A U176C, the reverse-splicing fitness was 0.0526.

For C82G A111C A120C A145G C150G C169G U176C, the reverse-splicing fitness turned out to be 0.0138. For the variant A111G A120C A145C C150A C169A U176G, the reverse-splicing fitness came to 0.00443. The same measure for C82G A111U A145U C150U C169G U176C: 0.0142. Under C82U A111G A120G A145U U176A stands 0.0116. Under C82U A111G A120C A145C C150U C169U U176A stands 0.0144. On to C82G A111U A145U C169G U176A, for which the reverse-splicing fitness turned out to be 0.0122. On to C82U A120C A145G C150U C169G U176G, for which the reverse-splicing fitness amounted to 0.00466. Under C82G A111U A120U C150G C169A stands 0.00722; under C82A A111U A120U A145C C150U C169U U176A, 0.00291. The same measure for C82G A111G A120G C150U C169A U176C: 0.0197. Under C82G A111G A145C C150G C169A stands 0.00828; under A111C A120C A145C C150A C169U, 0.0161.

For C82U A111C A120U A145U C169A U176G, the reverse-splicing fitness was 0.00168. Under C82G A111C A145G C150U C169U stands 0.0115; under C82G A111C A120C C150A C169G, 0.00905; under C82A A111U A120C C150A C169G U176A, 0.0199.

In the case of C82A A111C A120U C150G C169G U176C, the reverse-splicing fitness worked out at 0.00343. Turning to A111G A120C C150U U176C, the reverse-splicing fitness is 0.337. The same measure for A111U A120U C150G C169A: 0.00749; for A111G A120U C169G U176A: 0.0109; for C82A A111U A145C C150A C169A U176A: 0.0149. Under C82A A111U A120C A145G C150G stands 0.0101. Under C82U A120G A145C C150A C169G U176C stands 0.0125; under C82A A145U C169U U176A, 0.0117. For C82A A111C A120G A145G C150A C169A U176C, the reverse-splicing fitness stood at 0.0231.

Turning to C82A A120C A145U C150A U176G, the reverse-splicing fitness turned out to be 0.00574. Under C82U A111U A120G A145U C150A U176G stands 0.00425; under C82U A120G A145G C169G U176G, 0.00333; under C82U A120G A145G C169G U176C, 0.0317.

A111U A145U C150A C169G: the reverse-splicing fitness turned out to be 0.0109. Under A111U A120G A145U C169U U176G stands 0.00682; under C82G A120U C150G C169A U176A, 0.00571. On to A111G A120C A145U C150G U176A, for which the reverse-splicing fitness worked out at 0.0189.

For C82G A111U A145U C150U C169G, the reverse-splicing fitness was 0.00884. The same measure for C82G A120C A145C C150A C169G U176G: 0.0056; for C82G A120G A145C C150A C169G U176G: 0.00456.

Consider C82U A111U A120C A145G C150G C169A U176C, for which the reverse-splicing fitness turned out to be 0.0137. A111U A120U A145C C169U: the reverse-splicing fitness was found to be 0.0629. The same measure for C82A A120C A145U C169U: 0.0199. The same measure for C82G A111C A120C A145C C150U C169U U176C: 0.0133; for A111U A120U A145U C150G C169G: 0.00597; for A145G C150G C169U: 0.0734. Consider A111C A120C A145U C150U C169U U176G, for which the reverse-splicing fitness amounted to 0.00661. The same measure for C82G A111U A120U A145C C150G C169A U176A: 0.00316; for C82U A111G A120G A145G C150U: 0.0132; for C82A A120C A145G C150G C169A U176G: 0.00933. Regarding C82G A111C A120G A145U C150U C169G U176A, the reverse-splicing fitness worked out at 0.0127. The same measure for C82G A111C A120G A145U C150U C169G U176C: 0.0134.

These data come from the RNAGym collection of RNA variant scans (doi:10.1093/molbev/msab373).
